Laboratory results taken from US20200338203A1 (Bicycle, published 2020).
Numbered stars: 1 amine (or outer) side, 2 acyl side, 3 side chain; on linkers, the order of the positions; unused ones are H or OH. Bridge positions count the residues as written; N and C are the ends. Square brackets hold non-standard residues; d marks the D form. Ends that are not written are not given here. 1Nal = N[C@@H](Cc1cccc2ccccc12)C(=O)O; TBMB = c1c(C[*:1])cc(C[*:3])cc1C[*:2]; Gly(cPent) = N[C@H](C(=O)O)C1CCCC1; hArg = N=C(N)NCCCC[C@H](N)C(=O)O; Tle = CC(C)(C)[C@H](N)C(=O)O; AF488 = AlexaFluor488 label; Aib = CC(C)(N)C(=O)O; βAla = NCCC(=O)O; Sar = CNCC(=O)O

T1: Human EphA1 (Human, UniProt P21709 26-547)
T1 construct: extracellular domain; also called EphA1 (Ecto), Human
T1 sequence (looked up): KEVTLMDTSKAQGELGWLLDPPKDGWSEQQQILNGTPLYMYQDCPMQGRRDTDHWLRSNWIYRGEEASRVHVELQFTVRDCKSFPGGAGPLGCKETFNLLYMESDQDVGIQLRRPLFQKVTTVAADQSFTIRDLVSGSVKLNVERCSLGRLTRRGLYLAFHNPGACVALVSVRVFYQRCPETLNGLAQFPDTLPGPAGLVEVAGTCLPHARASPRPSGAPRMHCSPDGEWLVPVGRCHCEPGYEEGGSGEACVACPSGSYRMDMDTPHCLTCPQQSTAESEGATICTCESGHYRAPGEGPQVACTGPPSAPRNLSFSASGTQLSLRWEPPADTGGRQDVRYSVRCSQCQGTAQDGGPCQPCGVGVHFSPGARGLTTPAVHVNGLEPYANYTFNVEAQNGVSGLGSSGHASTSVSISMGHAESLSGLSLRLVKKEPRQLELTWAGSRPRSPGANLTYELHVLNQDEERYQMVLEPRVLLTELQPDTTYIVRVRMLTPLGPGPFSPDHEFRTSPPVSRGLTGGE

T2: rat EphB1 (Rat, UniProt P09759 18-540)
T2 construct: extracellular domain; also called EphB1 (Ecto), Rat
T2 sequence (looked up): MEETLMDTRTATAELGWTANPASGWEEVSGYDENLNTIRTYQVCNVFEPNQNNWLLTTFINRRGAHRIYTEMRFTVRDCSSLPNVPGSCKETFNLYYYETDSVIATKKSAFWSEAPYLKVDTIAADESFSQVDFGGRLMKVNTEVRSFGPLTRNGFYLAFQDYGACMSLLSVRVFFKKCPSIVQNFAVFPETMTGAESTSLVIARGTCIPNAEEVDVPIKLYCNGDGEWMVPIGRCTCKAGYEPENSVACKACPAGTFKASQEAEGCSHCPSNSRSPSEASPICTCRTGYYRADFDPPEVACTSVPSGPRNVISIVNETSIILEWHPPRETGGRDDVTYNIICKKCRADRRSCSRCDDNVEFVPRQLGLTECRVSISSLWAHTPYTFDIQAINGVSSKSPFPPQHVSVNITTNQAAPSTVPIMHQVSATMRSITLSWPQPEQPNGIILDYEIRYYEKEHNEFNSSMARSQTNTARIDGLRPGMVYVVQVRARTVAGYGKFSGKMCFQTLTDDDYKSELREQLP


These binders were tested against T3, Mouse EphA2 (Ecto) (Mouse, UniProt Q03145 26-538) (assay: FP direct binding).
T3 construct: extracellular domain; not shown: Fc fusion or C-terminal polyHis
T3 sequence (Q03145 26-538): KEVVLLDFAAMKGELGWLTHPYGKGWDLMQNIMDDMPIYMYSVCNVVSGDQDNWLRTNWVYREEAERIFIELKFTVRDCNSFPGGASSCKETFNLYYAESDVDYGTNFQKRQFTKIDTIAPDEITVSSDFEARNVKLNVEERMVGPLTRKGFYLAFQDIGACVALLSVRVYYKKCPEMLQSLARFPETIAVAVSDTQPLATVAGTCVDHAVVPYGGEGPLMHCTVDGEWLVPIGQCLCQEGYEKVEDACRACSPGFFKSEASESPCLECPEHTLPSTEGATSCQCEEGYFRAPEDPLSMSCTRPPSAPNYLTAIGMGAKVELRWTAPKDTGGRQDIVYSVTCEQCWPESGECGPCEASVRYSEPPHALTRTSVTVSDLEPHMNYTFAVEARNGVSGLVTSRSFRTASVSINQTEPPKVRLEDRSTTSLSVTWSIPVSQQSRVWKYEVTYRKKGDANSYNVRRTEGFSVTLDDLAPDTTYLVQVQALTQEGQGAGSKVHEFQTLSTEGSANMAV

Binder	Kd [nM]
{AF488-βAla}-[Sar][Sar][Sar][Sar][Sar][Sar][Sar][Sar][Sar][Sar]H[dD]VPCP[1Nal]G[Aib]F[1Nal]CP[Tle]NR[Aib]GC (linker 15-22-29 via TBMB) [Compound 144]	2.56
{AF488-βAla}-[Sar][Sar][Sar][Sar][Sar][Sar][Sar][Sar][Sar][Sar]H[dD]VPC[Aib][1Nal]G[Aib]F[1Nal]CP[Tle]N[hArg]P[dD]C (linker 15-22-29 via TBMB) [Compound 140]	4.55

Each binder was assayed against T4, Human EphA2 (Ecto) (Human, UniProt P29317 24-537) (assay: FP direct binding).
T4 construct: extracellular domain
T4 sequence (P29317 24-537): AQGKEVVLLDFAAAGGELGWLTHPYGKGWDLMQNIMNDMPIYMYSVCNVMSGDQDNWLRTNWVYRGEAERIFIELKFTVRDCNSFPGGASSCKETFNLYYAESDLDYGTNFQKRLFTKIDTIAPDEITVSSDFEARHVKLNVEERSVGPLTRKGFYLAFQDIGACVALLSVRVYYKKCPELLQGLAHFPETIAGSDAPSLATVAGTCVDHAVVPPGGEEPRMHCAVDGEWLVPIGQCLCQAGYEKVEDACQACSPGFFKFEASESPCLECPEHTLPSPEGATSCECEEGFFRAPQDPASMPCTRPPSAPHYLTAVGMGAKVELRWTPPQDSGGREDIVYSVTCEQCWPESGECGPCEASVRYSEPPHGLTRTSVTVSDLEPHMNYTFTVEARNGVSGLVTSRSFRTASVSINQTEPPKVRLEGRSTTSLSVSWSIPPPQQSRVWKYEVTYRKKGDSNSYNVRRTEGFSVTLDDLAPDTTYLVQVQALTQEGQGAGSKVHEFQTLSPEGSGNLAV

Binder	Kd [nM]
{AF488-βAla}-[Sar][Sar][Sar][Sar][Sar][Sar][Sar][Sar][Sar][Sar]H[dD]VPCP[1Nal]G[Aib]F[1Nal]CP[Tle]NR[Aib]GC (linker 15-22-29 via TBMB) [Compound 144]	1.04
{AF488-βAla}-[Sar][Sar][Sar][Sar][Sar][Sar][Sar][Sar][Sar][Sar]H[dD]VPC[Aib][1Nal]G[Aib]F[1Nal]CP[Tle]N[hArg]P[dD]C (linker 15-22-29 via TBMB) [Compound 140]	2.05
{AF488-βAla}-[Sar][Sar][Sar][Sar][Sar][Sar][Sar][Sar][Sar][Sar]H[dD][Gly(cPent)]PC[Aib][1Nal]G[Aib]F[1Nal]CP[Tle]NR[Aib][dD]C (linker 15-22-29 via TBMB) [Compound 146]	2.19

The binders below were run against T3, Mouse EphA2 (Ecto) (assay: FP competition; competitor Compound 18).

Binder	Ki [nM]
Ac-[Sar][Sar]A[dD][Gly(cPent)]VTCPWGPFWCPVNRPGC (linker 8-15-22 via TBMB) [Compound 163]	1.74
Ac-[Sar][Sar]H[dD]VPCP[1Nal]G[Aib]F[1Nal]CP[Tle]NR[Aib]GC (linker 7-14-21 via TBMB) [Compound 262]	0.72
Ac-[Sar][Sar]H[dD]VPCPWGPFWCPVNRPGC (linker 7-14-21 via TBMB) [Compound 225]	2.08
Ac-[Sar][Sar]A[dD]VTCPWGPFWCPVNRPGC (linker 7-14-21 via TBMB) [Compound 158]	2.2

The binders below were run against T4, Human EphA2 (Ecto) (assay: FP competition; competitor Compound 18).

Binder	Ki [nM]
Ac-[Sar][Sar]A[dD][Gly(cPent)]VTCPWGPFWCPVNRPGC (linker 8-15-22 via TBMB) [Compound 163]	1.33
Ac-[Sar][Sar]H[dD]VPCPWGPFWCPVNRPGC (linker 7-14-21 via TBMB) [Compound 225]	1
Ac-[Sar][Sar]A[dD]VTCPWGPFWCPVNRPGC (linker 7-14-21 via TBMB) [Compound 158]	2.05

What follows are binders tested against Human & mouse EphA3 (Human & mouse) (UniProt P29320) (assay: FP direct binding, selectivity).
Human & mouse EphA3 (Human & mouse), sequence (P29320 21-541): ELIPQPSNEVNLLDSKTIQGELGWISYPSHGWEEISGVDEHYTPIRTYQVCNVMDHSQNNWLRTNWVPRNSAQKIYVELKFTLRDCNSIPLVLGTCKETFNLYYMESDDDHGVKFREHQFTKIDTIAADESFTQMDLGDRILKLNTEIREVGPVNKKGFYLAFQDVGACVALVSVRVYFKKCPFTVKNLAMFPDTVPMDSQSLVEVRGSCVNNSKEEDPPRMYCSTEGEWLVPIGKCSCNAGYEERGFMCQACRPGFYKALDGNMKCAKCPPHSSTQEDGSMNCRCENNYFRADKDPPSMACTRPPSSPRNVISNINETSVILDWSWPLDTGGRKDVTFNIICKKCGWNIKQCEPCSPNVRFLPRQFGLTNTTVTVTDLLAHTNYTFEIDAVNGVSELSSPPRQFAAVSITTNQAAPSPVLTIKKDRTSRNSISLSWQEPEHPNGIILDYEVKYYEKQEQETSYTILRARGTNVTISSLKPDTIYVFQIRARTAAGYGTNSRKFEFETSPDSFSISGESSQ

Binder	Kd [nM]
{AF488-βAla}-[Sar][Sar][Sar][Sar][Sar][Sar][Sar][Sar][Sar][Sar]H[dD]VPCP[1Nal]G[Aib]F[1Nal]CP[Tle]NR[Aib]GC (linker 15-22-29 via TBMB) [Compound 144]	166
{AF488-βAla}-[Sar][Sar][Sar][Sar][Sar][Sar][Sar][Sar][Sar][Sar]H[dD]VPC[Aib][1Nal]G[Aib]F[1Nal]CP[Tle]N[hArg]P[dD]C (linker 15-22-29 via TBMB) [Compound 140]	3690
{AF488-βAla}-[Sar][Sar][Sar][Sar][Sar][Sar][Sar][Sar][Sar][Sar]H[dD][Gly(cPent)]PC[Aib][1Nal]G[Aib]F[1Nal]CP[Tle]NR[Aib][dD]C (linker 15-22-29 via TBMB) [Compound 146]	7190

Each binder was assayed against dog EphA2 (Dog) (assay: FP direct binding, selectivity).

Binder	Kd [nM]
{AF488-βAla}-[Sar][Sar][Sar][Sar][Sar][Sar][Sar][Sar][Sar][Sar]H[dD]VPCP[1Nal]G[Aib]F[1Nal]CP[Tle]NR[Aib]GC (linker 15-22-29 via TBMB) [Compound 144]	4.39
{AF488-βAla}-[Sar][Sar][Sar][Sar][Sar][Sar][Sar][Sar][Sar][Sar]H[dD]VPC[Aib][1Nal]G[Aib]F[1Nal]CP[Tle]N[hArg]P[dD]C (linker 15-22-29 via TBMB) [Compound 140]	8.7

Target: T4, Human EphA2 (Ecto)
Assay: FP competition; competitor Compound 18
Remark: another data set of the same source

Binder	Ki [nM]
Ac-[Sar][Sar]H[dD]VPCP[1Nal]G[Aib]F[1Nal]CP[Tle]NR[Aib]GC (linker 7-14-21 via TBMB) [Compound 262]	0.71

What follows are binders tested against T5, Human EphA2 (Human, UniProt P29317 24-537) (assay: FP competition; competitor: fluorescent Compound 18).
T5 construct: extracellular domain; also called EphA2 (Ecto), Human
Experimental: (§1) Peptides without a fluorescent tag were tested in competition with a peptide with a fluorescent tag and a known Kd (Table 2). Peptides were diluted to an appropriate concentration in assay buffer as described in the direct binding assay with a maximum of 5% DMSO, then serially diluted 1 in 2. Five μL of diluted peptide was added to the plate followed by 10 μL of human or mouse EphA2 (Table 1) at a fixed concentration which was dependent on the fluorescent peptide used (Table 2), then 10 μL fluorescent peptide added. Measurements were conducted as for the direct binding assay, however the gain was determined prior to the first measurement.

T5 sequence (P29317 24-537): as the sequence (P29317 24-537) above

Binder	Ki [nM]
[Sar][Sar]ACPWGPFWCPVNRP[dA]C (linker 4-11-18 via TBMB, bicyclic peptide) [Compound 112]	89
ADVHCPWGPFWCPVN[dA]PGCA (linker 5-12-19 via TBMB, bicyclic peptide) [Compound 156]	14.9
ADVHCPWGPFWCPV[dA]RPGCA (linker 5-12-19 via TBMB, bicyclic peptide) [Compound 155]	2
[Sar][Sar]ACPWGPAWCPVNRPGC (linker 4-11-18 via TBMB, bicyclic peptide) [Compound 83]	199
[Sar][Sar]ACPWGPFWCPVNRAGC (linker 4-11-18 via TBMB, bicyclic peptide) [Compound 104]	124
[Sar][Sar]ACPWGAFWCPVNRPGC (linker 4-11-18 via TBMB, bicyclic peptide) [Compound 289]	> 1000

What follows are binders tested against T1, Human EphA1 (assay: FP direct binding, selectivity).
Experimental: (§2) The gain used for analysis was determined for each tracer at the end of the 60 minutes where there was no protein in the well. Data was analysed using Systat Sigmaplot version 12.0. mP values were fit to a user defined quadratic equation to generate a Kd value: f=ymin+(ymax−ymin)/Lig*((x+Lig+Kd)/2-sqrt((((x+Lig+Kd)/2)\hat{ }2)−(Lig*x))). “Lig” was a defined value of the concentration of tracer used.

Binder	Kd [nM]
{AF488-βAla}-[Sar][Sar][Sar][Sar][Sar][Sar][Sar][Sar][Sar][Sar]H[dD]VPCP[1Nal]G[Aib]F[1Nal]CP[Tle]NR[Aib]GC (linker 15-22-29 via TBMB) [Compound 144]	1710

These binders were tested against T6, mouse EphA2 (Mouse, UniProt Q03145 26-538) (assay: FP direct binding, selectivity).
T6 construct: extracellular domain; C-terminal polyHis; also called EphA2 (Ecto), Mouse
Experimental: as §2

T6 sequence (Q03145 26-538): as the sequence (Q03145 26-538) above

Binder	Kd [nM]
{AF488-βAla}-[Sar][Sar][Sar][Sar][Sar][Sar][Sar][Sar][Sar][Sar]H[dD]VPCP[1Nal]G[Aib]F[1Nal]CP[Tle]NR[Aib]GC (linker 15-22-29 via TBMB) [Compound 144]	2.56
{AF488-βAla}-[Sar][Sar][Sar][Sar][Sar][Sar][Sar][Sar][Sar][Sar]H[dD]VPC[Aib][1Nal]G[Aib]F[1Nal]CP[Tle]N[hArg]P[dD]C (linker 15-22-29 via TBMB) [Compound 140]	4.55

The binders below were run against T2, rat EphB1 (assay: FP direct binding, selectivity).
Experimental: as §2

Binder	Kd [nM]
{AF488-βAla}-[Sar][Sar][Sar][Sar][Sar][Sar][Sar][Sar][Sar][Sar]H[dD]VPCP[1Nal]G[Aib]F[1Nal]CP[Tle]NR[Aib]GC (linker 15-22-29 via TBMB) [Compound 144]	1440

Each binder was assayed against rat EphA2 (Rat, UniProt D3ZBN3 27-205) (assay: FP direct binding, selectivity).
Experimental: as §2

Binder	Kd [nM]
{AF488-βAla}-[Sar][Sar][Sar][Sar][Sar][Sar][Sar][Sar][Sar][Sar]H[dD]VPCP[1Nal]G[Aib]F[1Nal]CP[Tle]NR[Aib]GC (linker 15-22-29 via TBMB) [Compound 144]	1.25
{AF488-βAla}-[Sar][Sar][Sar][Sar][Sar][Sar][Sar][Sar][Sar][Sar]H[dD]VPC[Aib][1Nal]G[Aib]F[1Nal]CP[Tle]N[hArg]P[dD]C (linker 15-22-29 via TBMB) [Compound 140]	1.57

Each binder was assayed against T5, Human EphA2 (assay: FP competition; competitor: fluorescent Compound 66).
Experimental: as §1

Binder	Ki [nM]
[Sar][Sar]ACPWGPFWCPVNRP[dA]C (linker 4-11-18 via TBMB, bicyclic peptide) [Compound 112]	110
[Sar][Sar]ACPWGPAWCPVNRPGC (linker 4-11-18 via TBMB, bicyclic peptide) [Compound 83]	288
[Sar][Sar]ACPWGPFWCPVNRAGC (linker 4-11-18 via TBMB, bicyclic peptide) [Compound 104]	194
[Sar][Sar]ACPWGAFWCPVNRPGC (linker 4-11-18 via TBMB, bicyclic peptide) [Compound 289]	1100
